Experimental data reported in article doi:10.1101/2021.03.22.436508.

What was measured:
[1] = target: Vibrio cholerae ParE2 toxin with C-terminal histidine tag (Vibrio cholerae biovar El Tor strain N16961); assay: native MS
[2] = target: Vibrio cholerae ParD2 antitoxin (Vibrio cholerae biovar El Tor strain N16961); assay: native MS
[3] = target: Vibrio cholerae ParE2 toxin with C-terminal histidine tag (Vibrio cholerae biovar El Tor strain N16961); assay: SAXS
[4] = target: Vibrio cholerae ParD2 antitoxin (Vibrio cholerae biovar El Tor strain N16961); assay: crystal structure
[5] = target: Vibrio cholerae ParE2 toxin with C-terminal histidine tag (Vibrio cholerae biovar El Tor strain N16961); assay: crystal structure
[6] = target: Vibrio cholerae ParD2 antitoxin (Vibrio cholerae biovar El Tor strain N16961); assay: crystal structure; remark: listed apart in the source
[7] = target: Vibrio cholerae ParE2 toxin with C-terminal histidine tag (Vibrio cholerae biovar El Tor strain N16961); assay: SEC-MALS
[8] = target: Vibrio cholerae ParD2:ParE2 6:2 hetero-octameric complex (Vibrio cholerae biovar El Tor strain N16961); assay: native MS

Substance	stoichiometry N (ParD2 per ParE2 (printed as 6:2)) [1]	stoichiometry N [2]	stoichiometry N (ParD2 per ParE2 (printed as 6:2)) [3]	stoichiometry N [4]	stoichiometry N (ParD2 per ParE2 (printed as 6:2)) [5]	stoichiometry N [6]	stoichiometry N (ParD2 per ParE2 (printed as 6:2)) [7]	stoichiometry N [8]
Vibrio cholerae ParD2 antitoxin (natural protein)	3	2	3	6	3	2	3	
Vibrio cholerae ParD2:ParE2 6:2 hetero-octameric complex								2
